# Measurements as given in IntAct's records for PubMed 10601328.
# B1: Receptor-type tyrosine-protein phosphatase R (Homo sapiens), Q15256 (parent)
# chain: MRRAVCFPALCLLLNLHAAGCFSGNNDHFLAINQKKSGKPVFIYKHSQDIEKSLDIAPQKIYRHSYHSSSEAQVSKRHQIVNSAFPRPAYDPSLNLLAMDGQDLEVENLPIPAANVIVVTLQMDVNKLNITLLRIFRQGVAAALGLLPQQVHINRLIGKKNSIELFVSPINRKTGISDALPSEEVLRSLNINVLHQSLSQFGITEVSPEKNVLQGQHEADKIWSKEGFYAVVIFLSIFVIIVTCLMILYRLKERFQLSLRQDKEKNQEIHLSPITLQPALSEAKTVHSMVQPEQAPKVLNVVVDPQGRGAPEIKATTATSVCPSPFKMKPIGLQERRGSNVSLTLDMSSLGNIEPFVSIPTPREKVAMEYLQSASRILTRSQLRDVVASSHLLQSEFMEIPMNFVDPKEIDIPRHGTKNRYKTILPNPLSRVCLRPKNVTDSLSTYINANYIRGYSGKEKAFIATQGPMINTVDDFWQMVWQEDSPVIVMITKLKEKNEKCVLYWPEKRGIYGKVEVLVISVNECDNYTIRNLVLKQGSHTQHVKHYWYTSWPDHKTPDSAQPLLQLMLDVEEDRLASQGRGPVVVHCSAGIGRTGCFIATSIGCQQLKEEGVVDALSIVCQLRMDRGGMVQTSEQYEFVHHALCLYESRLSAETVQ
# Variants of: B1
# Details: with mk14_human MAPK14, Q16539
# Chain of mk14_human MAPK14, Q16539 (Q16539 whole entry): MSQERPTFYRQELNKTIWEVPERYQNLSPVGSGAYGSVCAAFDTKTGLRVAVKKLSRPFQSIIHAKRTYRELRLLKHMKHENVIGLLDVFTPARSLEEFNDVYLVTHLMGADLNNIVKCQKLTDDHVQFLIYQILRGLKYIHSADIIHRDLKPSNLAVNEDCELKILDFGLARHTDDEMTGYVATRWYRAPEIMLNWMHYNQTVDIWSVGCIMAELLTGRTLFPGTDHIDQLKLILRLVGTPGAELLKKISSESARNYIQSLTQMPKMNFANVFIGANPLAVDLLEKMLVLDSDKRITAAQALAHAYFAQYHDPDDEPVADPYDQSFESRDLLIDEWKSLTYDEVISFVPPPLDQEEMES
row,Variant,effect of a mutation on the interaction
1,S339E,disrupting interaction
